Consider four compounds from US7256013B2, “Kit for determining the acetylation level of a peptide based on sensitivity of the peptide to peptidase” (Cyclex Co., Ltd., priority 1999, dated 2007).

The star is where a group is joined. AMC = Cc1cc(=O)oc2cc(N*)ccc12; Boc = CC(C)(C)OC(=O)*

One assay deals with T1, recombinant SIRT1 (Homo sapiens, UniProt Q96EB6).
T1 construct: the first amino acid residue to the 747th residue of SIRT1 (full length) was amplified using this primer set; made in house; host or cells: E. coli BL21 Gold (DE3), vector pGEX-4T-1
T1 sequence (Q96EB6 1-747): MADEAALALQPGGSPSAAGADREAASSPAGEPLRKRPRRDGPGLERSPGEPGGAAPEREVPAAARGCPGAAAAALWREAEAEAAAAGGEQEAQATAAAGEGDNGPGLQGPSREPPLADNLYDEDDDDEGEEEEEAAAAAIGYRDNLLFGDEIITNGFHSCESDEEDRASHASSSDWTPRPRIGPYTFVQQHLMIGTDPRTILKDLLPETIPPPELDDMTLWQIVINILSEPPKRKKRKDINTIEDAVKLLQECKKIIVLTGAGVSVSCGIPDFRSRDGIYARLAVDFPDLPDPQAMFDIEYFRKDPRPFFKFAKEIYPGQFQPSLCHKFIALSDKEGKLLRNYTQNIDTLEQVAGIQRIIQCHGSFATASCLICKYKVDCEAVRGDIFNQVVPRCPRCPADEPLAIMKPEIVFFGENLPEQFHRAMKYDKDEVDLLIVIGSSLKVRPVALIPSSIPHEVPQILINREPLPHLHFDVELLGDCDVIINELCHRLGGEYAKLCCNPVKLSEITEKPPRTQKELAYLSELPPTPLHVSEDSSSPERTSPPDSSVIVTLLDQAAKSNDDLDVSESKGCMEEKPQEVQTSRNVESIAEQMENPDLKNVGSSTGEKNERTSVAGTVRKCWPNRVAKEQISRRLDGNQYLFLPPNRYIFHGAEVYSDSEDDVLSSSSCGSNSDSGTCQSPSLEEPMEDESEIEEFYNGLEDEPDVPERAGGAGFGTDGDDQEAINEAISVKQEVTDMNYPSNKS
Put plainly: SIRT1 deacetylase activity assay (FMAP) with Nma-VGAK(Ac)RHSK(Dnp)-NH2 and lysylendopeptidase. To be noted: serial dilutions of NAD added to the reaction solution; FIG. 7. In kind it is biochemical. As for the experimental part: Peptide for the SIRT1-activity assay: Nma-VGAK(Ac)RHSK(Dnp)-NH2
5 μl of 0.005 U/μl lysylendopeptidase (LEP) was combined with 90 μl of an enzyme reaction buffer (50 mM Tris-HCl (pH 8.8), 4 mM MgCl2, 0.2 mM DTT) and 1 μl of 10 mM peptide solution for SIRT1-activity assay. 2 μl of 5 mM NAD and 2 μl of each of serial dilutions of a recombinant SIRT1 solution, or alternatively 2 μl of each of serial dilutions of an NAD solution and 2 μl of a solution containing 1 mg/ml recombinant SIRT1 were added at the same time to the mixture. The enzyme reaction and fluorescence assay were performed at 30° C. using 384-well plates for fluorescence assay.
The fluorescence intensity was measured at excitation wavelength 355 nm/fluorescence wavelength 460 nm by using a Wallac 1420 ARVO HTS Multi Label Counter. The measurement was repeated at about 2- to 3-minute intervals for 50 minutes.
It has been reported that the presence of NAD is essential for the deacetylase activity of SIRT1. In order to assess whether the NAD-dependency of SIRT1 activity can be detected using the assay method, an NAD solution was serially diluted and each dilution was added to the reaction solution, and then observation was made for the changes in the fluorescence intensity.

In a further assay the test system is histone deacetylase. Put plainly: Histone deacetylase activity assay with Boc-Val-Leu-(Ac)Lys-MCA and lysylendopeptidase (fluorescence). In kind it is biochemical, human. Conditions: at a concentration of about 200 nM; FIG. 5. As for the experimental part: MCF7 cells were washed with PBS, and then centrifuged. Precipitated cells were suspended in 4 ml lysis buffer and were left standing 15 minutes on ice. 5 ml lysate buffer was obtained by washing the centrifuge tube with 1 ml lysis buffer. The lysate was loaded on 15 ml sucrose cushion buffer in a centrifuge tube for type-07 rotor. Then, The tubes were centrifuged at 1300 g for 20 minutes and precipitated cells were recovered with 1.5 ml of the lysis buffer. After washing the cells, the cells were suspended in 700 μl low-salt buffer. The cells were sonicated for 30 seconds, and then allowed to stand still on ice for 30 minutes. The lysate was centrifuged at 100,000 g for 40 minutes, and the supernatant was collected to recover crude histone deacetylase. The pooled crude histone deacetylase was placed in a 1.5-ml tube, and was dialyzed overnight against a solution containing 50% glycerol, 150 mM NaCl, and 20 mM Tris (pH 7.5). The dialysate was substituted 3 times with fresh buffer. […]
1 μl of DMSO solution containing 10 mM substrate peptide, Boc-Val-Leu-(Ac)Lys-MCA, was added to 64 μl HDAC reaction buffer (25 mM Tris-HCl pH 7.5) for each assay. […] The fluorescence intensity was measured every 150 seconds with fluorescence microplate reader. The fluorescence intensity was measured using Wallac 1420 ARVOsx Multi Label Counter (Amersham-Pharmacia Biotech). […]

A further assay addresses lysylendopeptidase (Achromobacter lyticus, UniProt P15636). Put plainly: Cleavage of fluorescence-labeled substrate peptide by lysylendopeptidase. Conditions: 5×10^−6 AU lysylendopeptidase; FIG. 1. In kind it is biochemical. As for the experimental part: (§1) 1 μl of DMSO solution containing 10 mM substrate peptide, Boc-Val-Leu-(Ac)Lys-MCA, was added to 64 μl HDAC reaction buffer (25 mM Tris-HCl pH 7.5) for each assay. The mixture was poured into the wells of a microplate for fluorometry and was incubated at 30° C. Then, 10 μl of histone deacetylase solution was added to each well and the plate was subjected for deacetylation at 30° C. for 60 minutes. After the reaction, 5 μl of peptidase solution that was diluted with 25 mM Tris-HCl (pH 7.5) to an optimal concentration and 20 μl 5× protease reaction buffer were added to each well. The fluorescence intensity was measured every 150 seconds with fluorescence microplate reader. The fluorescence intensity was measured using Wallac 1420 ARVOsx Multi Label Counter (Amersham-Pharmacia Biotech). The composition of the reaction buffer was as follows.
(§2) 5×10^−6 AU lysylendopeptidase or 0.001U plasmin was added to Boc-Val-Leu-Lys-MCA or Boc-Val-Leu-(Ac)Lys-MCA. The Figures show the fluorescence intensity measured at an interval of about 150-seconds.

The next assay concerns the target plasmin (Homo sapiens, UniProt P00747). Nature of the assay: Cleavage of fluorescence-labeled substrate peptide by plasmin. Conditions: 0.001U plasmin; FIG. 2. In kind it is biochemical. As for the experimental part: as §1, §2

Sequence of lysylendopeptidase (P15636 206-473 limits assumed, species assumed): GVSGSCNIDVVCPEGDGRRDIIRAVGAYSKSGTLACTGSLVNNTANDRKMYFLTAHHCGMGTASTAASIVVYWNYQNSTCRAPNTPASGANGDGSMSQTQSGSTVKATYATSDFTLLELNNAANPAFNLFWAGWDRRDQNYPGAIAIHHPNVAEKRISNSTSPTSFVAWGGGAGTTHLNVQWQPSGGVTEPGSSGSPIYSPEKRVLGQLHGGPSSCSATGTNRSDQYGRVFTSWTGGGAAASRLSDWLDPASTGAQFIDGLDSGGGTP
Sequence of plasmin (P00747 581-810 limits assumed, species assumed): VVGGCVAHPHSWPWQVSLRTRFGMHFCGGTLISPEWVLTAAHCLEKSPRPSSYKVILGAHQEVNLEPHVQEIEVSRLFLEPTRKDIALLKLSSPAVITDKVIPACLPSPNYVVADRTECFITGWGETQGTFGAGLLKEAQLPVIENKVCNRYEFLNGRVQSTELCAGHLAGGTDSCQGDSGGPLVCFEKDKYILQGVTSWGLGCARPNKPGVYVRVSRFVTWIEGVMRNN
Sequence of plasmin (P00747 97-580 partner limits assumed, species assumed): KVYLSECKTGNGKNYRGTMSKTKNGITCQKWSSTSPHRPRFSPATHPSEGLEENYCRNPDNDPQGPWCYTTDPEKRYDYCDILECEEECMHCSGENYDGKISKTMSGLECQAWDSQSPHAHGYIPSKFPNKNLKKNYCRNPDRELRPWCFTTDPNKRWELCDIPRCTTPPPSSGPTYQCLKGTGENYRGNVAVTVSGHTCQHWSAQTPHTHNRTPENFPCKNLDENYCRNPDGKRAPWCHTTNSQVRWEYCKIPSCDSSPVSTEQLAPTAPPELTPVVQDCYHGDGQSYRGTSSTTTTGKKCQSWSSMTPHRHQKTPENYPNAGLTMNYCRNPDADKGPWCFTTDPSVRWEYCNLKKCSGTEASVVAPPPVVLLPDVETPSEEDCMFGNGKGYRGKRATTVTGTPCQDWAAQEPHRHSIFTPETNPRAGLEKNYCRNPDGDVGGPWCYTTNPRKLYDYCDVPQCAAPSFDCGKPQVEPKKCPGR

In the case of `NC(=O)c1ccc[n+]([C@@H]2O[C@H](COP(=O)([O-])OP(=O)(O)OC[C@H]3O[C@@H](n4cnc5c(N)ncnc54)[C@H](O)[C@@H]3O)[C@@H](O)[C@H]2O)c1` [NAD], the “fluorescence intensity (deacetylation activity of recombinant SIRT1)” value at recombinant SIRT1 was “increased in an NAD concentration-dependent fashion”.
Consider `CC(/C=C/C(=O)NO)=C\[C@@H](C)C(=O)c1ccc(N(C)C)cc1` [Trichostatin A], for which the “effect on the deacetylation reaction (inhibition)” value in the assay on histone deacetylase is on record as “almost completely inhibited”.
With “Boc-Val-Leu-(Ac)Lys-MCA (VLK; HELM PEPTIDE1{[CC(C)(C)OC(=O)[*:2]].V.L.K.[Cc1cc(=O)oc2cc(N[*:1])ccc12]}|PEPTIDE2{[ac]}$PEPTIDE1,PEPTIDE2,4:R3-1:R2$$$V2.0; SMILES CC(=O)NCCCC[C@H](NC(=O)[C@H](CC(C)C)NC(=O)[C@@H](NC(=O)OC(C)(C)C)C(C)C)C(=O)Nc1ccc2c(C)cc(=O)oc2c1) [fluorescence labeled substrate peptide with an acetylated lysine residue]”, the “peptide cleavage by lysylendopeptidase” value with lysylendopeptidase was “did not cleave”. For the same compound, in the assay with plasmin, the “peptide cleavage by plasmin” value is on record as “did not cleave”.
Consider “Boc-Val-Leu-Lys-MCA (Boc-Val-Leu-Lys-{AMC}) [fluorescence labeled substrate peptide, non-acetylated]”, for which the “peptide cleavage by lysylendopeptidase” value with lysylendopeptidase is recorded as “digested”. Also, the “peptide cleavage by plasmin” value in the assay with plasmin is “digested”.
